Experimental findings from publication PMC9108986, “Bioinformatic identification of previously unrecognized amyloidogenic proteins” (The Journal of Biological Chemistry, 2022) are described below.

The data set concerns the molecule itself. In words: amyloid fibre formation (thioflavin T fluorescence + electron microscopy + X-ray fibre diffraction); self-association into fibres; 50 uM protein in 1x PBS with 40 uM ThT, 37 °C, 700 rpm double orbital shaking with a PTFE bead, ~138 h; end-point samples imaged by negative-stain TEM; fibres diffracted (rings at 4.7 and 10 Å).

Substitutions are numbered along the chain they refer to. Numbers in names are those of the source.

B1: mCherry-fused low-complexity domain of TFG, residues 237-327, G269V (domain or fragment, human, UniProt Q92734 237-327, looked up)
chain: GQIEGQMYQQYQQQAGYGAQQPQAPPQQPQQYVIQYSASYSQQTGPQQPQQFQGYGQQPTSQAPAPAFSGQPQQLPAQPPQQYQASNYPAQ
notes: TRK-fused gene protein (TFG), human, low-complexity domain, residues 237-327, with the documented pathogenic mutation G269V (Charcot-Marie-Tooth disease type 2); also called TFG (237-327) G269V; mutant construct; source: E. coli BL21(DE3) Gold, purified (nickel-nitrilotriacetic acid, size-exclusion chromatography), dialyzed into PBS
For B1, the binding result was “binds”.

B2: mCherry-fused low-complexity domain of TFG, residues 237-327, P285L (domain or fragment, human, UniProt Q92734 237-327, looked up)
chain: B1 chain with V33G, P49L
notes: also called TFG (237-327) P285L; mutant construct; source: E. coli BL21(DE3) Gold, purified (nickel-nitrilotriacetic acid, size-exclusion chromatography), dialyzed into PBS
As for B2, the binding result is given as “binds”.
